# According to PMC10760972:
# Read-outs that look alike come from different tables or passages of the source.
# Key:
# [1] = target: AURKB (UniProt Q96GD4); test: co-precipitation from cells, immunoblot; details: reference: NSFL1C wild type; sites S140
substance,measurement,setting,value
NSFL1C (from UniProt Q9UNZ2) NSFL1C-S140A,binding against the reference,[1],weaker
NSFL1C: NSFL1C-S140A,other,phosphorylation at S140,abolishes
AURKB: AURKB-3KR (K31R/K56R/K85R),enzymatic_activity,ubiquitination at K31,decreases
same,localisation_or_trafficking,ubiquitination at K31,decreases
same,enzymatic_activity,ubiquitination at K56,decreases
same,localisation_or_trafficking,ubiquitination at K56,decreases
same,enzymatic_activity,ubiquitination at K85,decreases
same,localisation_or_trafficking,ubiquitination at K85,decreases
